Laboratory results published in the supplement of paper PMC12042874.
± gives the uncertainty stated by the source.

Test: amyloid nucleation score (Sup35N fusion, yeast selection) (log enrichment); library NNK1; higher = more nucleation; inactive = no reads after selection
In short: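 Psi-negative yeast expressed Sup35N fused to peptides of 20 random codons. They were induced 24 hours with 100 μM copper sulfate, grown 7 days at 30°C without adenine and uracil, and their plasmid inserts from input and output were Illumina-sequenced. The nucleation score is the DiMSum log enrichment of output over input reads, centred on the mode score of non-aggregating sequences. Sequences with under 100 input reads were excluded.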

| Substance | amyloid nucleation score |
| --- | --- |
| MSSFRGDLEFAYDYS | -0.582 ± 1.2 |
| MSVCAIYRVRVFQCCFTCLH | -0.953 ± 0.68 |
| MSVGSRFTHHIMWTVTKNRV | 0.424 ± 1 |
| MTAPHFLYLKRPHRPTRPDL | 0.898 ± 0.58 |
| MTRLINYCNGYNAKVVNWCF | 0.7 ± 0.97 |
| MTRNELLSLSLARCVGANAL | 0.088 ± 1.2 |
| MTRWTGRSLTLMRLQVVLRP | -0.413 ± 0.62 |
| MTSLFLCKVTRM | 0.23 ± 0.6 |
| MTSVADECSLYSWAYSWLMS | 1.84 ± 0.57 |
| MVDTYRYVIISVYVMLPYYN | 1.14 ± 0.97 |
| MVETVYMVEALCRGPEPVVV | -2.09 ± 2.4 |
| MVFRGFHKSQLGSFELAVGG | 0.428 ± 0.76 |
| MVGQYRYLSPYGW | 0.724 ± 1.2 |
| MVKLSLVIMMVLNGGMANGS | 0.69 ± 0.81 |
| MVQNVWDVRYDEAAMTLVRH | 0.461 ± 0.61 |
| MVRYKRRSLELFMIARYSCC | 0.599 ± 1.2 |
| MVSTPSDGNLED | -0.816 ± 0.65 |
| MVWVKGEDCFVDQACLRGAV | 1.03 ± 0.72 |
| MWIPFRVYLRAH | inactive |
| MWLFYRWVRSCTCP | -0.042 ± 0.32 |
| MWSIYMHVAHLGMQTRGCCR | 1.76 ± 0.22 |
| MWSLDGTKICNLRKVFGRSC | 0.809 ± 0.37 |
| MYASELSLKPATYSWK | -0.646 ± 0.42 |
| MYYSIGWKR | 1.48 ± 0.8 |
| MYYVIFNTNSHAN | 4.55 ± 0.093 |

| Substance | amyloid nucleation score |
| --- | --- |
| NAAYRVWMWKSLVRSLGRYK | 0.647 ± 0.4 |
| NADCLIDDFASFDHMVPG | 0.004 ± 0.51 |
| NAFSYTGRYIGLPRELGVLR | 1.06 ± 0.52 |
| NCASLLGRFSDDLIDHLSVL | 2.02 ± 0.62 |
| NCMAISGITVLNMSWNNLKI | 6.612 ± 0.064 |
| NCMLTECPGLHSNLMWSKWG | 1.5 ± 0.25 |
| NCNSGSNDTGFWQMASRTGL | 0.071 ± 0.4 |
| NCRMGR | -0.016 ± 1.7 |
| NCSMPFETMMKHSRN | -0.068 ± 0.53 |
| NCTWITGIFS | 0.044 ± 0.35 |
| NDDYHTLSQCACSFALRADG | 1.08 ± 0.54 |
| NDIPLSIRSHS | 0.269 ± 0.37 |
| NDIYLDGNVFKF | -0.477 ± 0.37 |
| NDNLVDNQT | 0.23 ± 0.75 |
| NDQVNVNFS | 0.338 ± 0.22 |
| NDRCFIGPWRSSRPGDFSGH | -0.043 ± 1.4 |
| NDRFFGSKYCGVIVLSISDL | 5.95 ± 0.061 |
| NDRTKNQSYFP | -0.195 ± 0.29 |
| NDSICTYSMAWGRERSGVCY | inactive |
| NDSNSPIFPGGDHPWCGFDW | 0.089 ± 0.88 |
| NDYEELIMYFKEDVF | 1.76 ± 0.5 |
| NECSGGLQKLLNRTTNSDLW | 0.185 ± 0.33 |
| NERSSEELAPLDTQWSMLRG | -0.124 ± 0.69 |
| NEVPCVRRWSCRGLCARELM | 0.429 ± 0.88 |
| NFCVSVVFP | 1.84 ± 0.54 |

| Substance | amyloid nucleation score |
| --- | --- |
| NFDYHTTTVGMELWSLGFSS | -0.585 ± 0.51 |
| NFHFVMGISVIRRLMSESQS | -0.366 ± 0.66 |
| NFLIANRSLDAVLMVQLPFV | -0.344 ± 0.98 |
| NFPFMFKCSPGNVHLVDIR | -0.535 ± 1.7 |
| NFVICNVMDRISWLCVCNLH | 4.08 ± 0.076 |
| NGCDIFSFGFYLLILFSLIQ | -0.196 ± 0.49 |
| NGCVLLMVMVLTVDIAL | 2.78 ± 0.18 |
| NGEILSTLDDVTMLRIRTTC | 0.071 ± 0.41 |
| NGFGAYVYNSYLRFGNLSRA | inactive |
| NGFLTSRCMLVCMKGMV | 0.729 ± 0.34 |
| NGFQLTILKDHGLVKRQSPR | inactive |
| NGLGFLNGRSSFGVGCYY | -0.486 ± 0.28 |
| NGMLFCT | 0.267 ± 0.79 |
| NGRLMVGMLHV | 0.719 ± 0.56 |
| NGTRYMEAIMEKSLC | 1.47 ± 0.4 |
| NGTTLVAVSYELPLSGVLSK | -0.798 ± 0.57 |
| NGVMESGNRRTLLRPTVVET | -0.016 ± 1.2 |
| NGVSTVEYVMFKFSIAFAMF | 6.583 ± 0.046 |
| NGYELYTDQGGQLVVCDESS | -2.07 ± 1.6 |
| NGYFYTTYASDVPRRYVPYL | 0.387 ± 0.33 |
| NHFGAYVVYGFIEHKKTGMW | 1.82 ± 0.19 |
| NHIQRVSTFVLAMSYYVRTV | -0.236 ± 1.2 |
| NHPTRPLTTQLGLAAQAKSG | -0.153 ± 0.47 |
| NIAYQTDSGVRLRFVTDSRG | inactive |
| NICTLYPT | 0.236 ± 1.1 |

| Substance | amyloid nucleation score |
| --- | --- |
| NICVFNEFKVYNAYTVYWGW | 5.801 ± 0.054 |
| NICWFGVSRLQKMEGLWTGA | 0.515 ± 0.67 |
| NIITVGNGSILMMVWSSEVN | 5.63 ± 0.08 |
| NIVFL | 0.021 ± 0.55 |
| NIVSALRYITPYYLAAYPIT | 0.025 ± 0.36 |
| NKAVKLQSDPMGALC | 0.701 ± 0.54 |
| NKLGLLRVFKVRFPPCCCCD | -0.266 ± 0.99 |
| NKTLV | inactive |
| NKVHSSFSLGGLPEARASDE | 0.966 ± 0.66 |
| NKVLCFK | inactive |
| NKWSRSGKRCAKMGNSCSDE | 1.49 ± 0.69 |
| NKWYVF | 0.071 ± 1.1 |
| NLALLEYVINSVSTMFYISN | 0.276 ± 0.24 |
| NLCSFFMFTIILGGNVGTFM | 7.208 ± 0.044 |
| NLDFLLFGIECIVKTCPFGY | 0.01 ± 0.44 |
| NLFCRRMSSDWALKSELSNH | 0.708 ± 0.36 |
| NLFVSYSTDNSSTFMWDSVR | 4.44 ± 0.058 |
| NLGLR | 4.49 ± 0.077 |
| NLGVVSIHDRHRYVAKVYSS | 0.844 ± 0.5 |
| NLILIR | 0.72 ± 0.61 |
| NLKADRFDHGSPEVVSLSFI | -0.027 ± 0.98 |
| NLKRPNELWINIETFIRSLH | 1.32 ± 0.38 |
| NLLWCIVGTKPWKVLTTVNY | -0.28 ± 0.38 |
| NLQVVYMSLV | 2.99 ± 0.14 |
| NLSGSFPN | -0.2 ± 0.92 |

| Substance | amyloid nucleation score |
| --- | --- |
| NLSSYGR | 0.798 ± 0.23 |
| NLTRHVDVANPAPRLPHLGV | -0.146 ± 0.46 |
| NLTTPIWDRSYCSYMNMMNS | 0.369 ± 0.42 |
| NLYFIHVSRMIWSNSV | 5.02 ± 0.075 |
| NMDGLAPISGSFYSRSGNFI | 0.964 ± 0.61 |
| NNFGFET | 0.671 ± 0.31 |
| NNGPIPNILKEL | 0.523 ± 0.41 |
| NNIVLDFLFGVSLHRFGPHH | 4.43 ± 0.14 |
| NNKDISYGREAGGYEVERKD | -0.907 ± 1.2 |
| NNKKNY | -0.505 ± 0.27 |
| NNLFYEIRM | 1.92 ± 0.17 |
| NNRIRRGGSVSVVMTVCDMD | 1.81 ± 0.34 |
| NNSYFMCNTLRRVLMGLLLG | 1.11 ± 0.65 |
| NNTDYLNCYTAICSSNTVAG | inactive |
| NPGIDYNERYWMG | -1.09 ± 1.1 |
| NPNFDRGQRSLQLDIMVKWR | 1.97 ± 0.19 |
| NPNTKYINCPHRVAFRGKLM | 0.552 ± 0.74 |
| NPRISCFVLQIRSAALSQSV | -0.007 ± 0.92 |
| NPSGFRSTEWYV | -0.421 ± 0.56 |
| NQACAFYNRLRFGK | 3.27 ± 0.14 |
| NQMGRRQRVLRSSDSRPTVL | -0.114 ± 0.74 |
| NQMVWMVELWRTVDCVVLNV | -0.17 ± 0.34 |
| NQTNIMCSPNIICSVSGQSG | 6.743 ± 0.047 |
| NQWCAFWYRESSRVYDCDWL | -0.478 ± 0.53 |
| NQYLDVGVRKSNAECKVPHE | inactive |

| Substance | amyloid nucleation score |
| --- | --- |
| NRCCVPTKATN | 0.27 ± 0.53 |
| NREGCIMWHRRVLARRCLTS | 0.145 ± 0.89 |
| NRFFSRVKKYPYTLSYPGFC | 0.065 ± 0.29 |
| NRNVYRSGVFGSGVWTRVER | 0.15 ± 0.45 |
| NRRMCFRCIFGFHVCKLNGW | -0.027 ± 0.5 |
| NRRVPLIHCYLMCGYTGTCW | 0.249 ± 0.4 |
| NRRVSLCRASCSIMRVKPLG | -0.261 ± 0.56 |
| NRSVRGVFLEGNVRFCWLRE | 1.21 ± 0.85 |
| NRWSGLSHRS | -1.63 ± 2.1 |
| NRYIRELGRKTYVLRKEFRG | -0.274 ± 1.2 |
| NSFRTGVLYSMESEGMAWWC | -0.044 ± 0.76 |
| NSGFRAASS | 2.02 ± 0.55 |
| NSLMFRPWTLGDF | -0.434 ± 1.7 |
| NSNARAGVLDLPSCRTVVIE | 0.68 ± 0.65 |
| NSRMMLGVLSSVAYGVRMVW | 0.651 ± 0.56 |
| NSSKAMKKQVHLLFFRK | 0.699 ± 0.42 |
| NSSSIQVANRARDV | inactive |
| NSTPLADRCSVGMLPALKAD | -0.351 ± 0.63 |
| NSYKCIWMSLGVV | -0.897 ± 0.38 |
| NSYLCCIWK | 7.32 ± 0.08 |
| NTAQVLYYL | -0.674 ± 0.22 |
| NTCHKIDSTI | -0.13 ± 0.59 |
| NTDLTNRSDYLYIV | -1.78 ± 1.2 |
| NTESLEFRSKKGGNCRAGLS | 0.495 ± 0.97 |
| NTIEGV | inactive |

| Substance | amyloid nucleation score |
| --- | --- |
| NTKSTPNTSVLFSLTTRI | 1.3 ± 0.15 |
| NTKTNGTSIGNSTVVLHLIA | 6.409 ± 0.057 |
| NTMGSNWYMVVNSWFVRRCS | -1.01 ± 1.2 |
| NTREVSVRETDCCKLTCMIA | 7.743 ± 0.043 |
| NVAFYVTVV | -0.049 ± 0.26 |
| NVAPSQSFPSLYCSE | inactive |
| NVDFLISQSRIFYIERLSSQ | 2.77 ± 0.16 |
| NVDWSPKRNINMGGWEKWLV | 0.261 ± 0.92 |
| NVGYTYGYRKNSADNMAFCV | inactive |
| NVMQKNLFGSCIILLSWSLS | 0.078 ± 0.26 |
| NVNWKWVGNTLVVSIMVEAN | inactive |
| NVRSFWFSGNQSNIGGICWG | 0.204 ± 0.43 |
| NVSFWFYPLSAFSRPFFGLH | 2.74 ± 0.28 |
| NVVHRLLWQSSVTSYIAVSY | 1.86 ± 0.14 |
| NVYFLPIMA | -1.06 ± 0.54 |
| NVYLGGLVQYFCQWLAGSIR | 0.59 ± 0.62 |
| NWDGLYVYEYSRFVVASCRN | 1.2 ± 0.2 |
| NWEKVNLLTLRNTFRCSSRA | 0.751 ± 0.27 |
| NWSEWGSRIHFKCWIEMLLR | 0.174 ± 0.55 |
| NYAAPVSCRGLADEGRSRTD | -0.4 ± 0.49 |
